Residue numbers refer to the chain shown, from its start. Names and notes keep the numbering of the source. One block for each binder: values may come before it.
Tests used:
[1] = biological target: T1, cynomolgus LAG3 on activated CD4+ and CD8+ cynomolgus T cells (cynomolgus); test: FACS, stimulated cynomolgus CD4+ T cells, donor 1
T1 chain: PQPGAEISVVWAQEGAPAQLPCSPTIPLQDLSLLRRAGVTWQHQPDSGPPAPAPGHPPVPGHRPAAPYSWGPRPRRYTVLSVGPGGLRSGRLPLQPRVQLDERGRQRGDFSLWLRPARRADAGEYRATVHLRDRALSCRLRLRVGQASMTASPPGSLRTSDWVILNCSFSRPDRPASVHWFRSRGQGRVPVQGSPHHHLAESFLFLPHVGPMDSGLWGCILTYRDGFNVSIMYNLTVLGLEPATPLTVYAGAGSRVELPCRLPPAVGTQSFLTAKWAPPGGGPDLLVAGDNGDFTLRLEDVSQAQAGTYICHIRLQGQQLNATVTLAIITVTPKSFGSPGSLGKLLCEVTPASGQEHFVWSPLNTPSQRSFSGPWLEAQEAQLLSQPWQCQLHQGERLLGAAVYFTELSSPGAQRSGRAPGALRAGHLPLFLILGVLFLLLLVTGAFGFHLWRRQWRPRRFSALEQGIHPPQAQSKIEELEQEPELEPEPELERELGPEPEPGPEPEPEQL
Description: (§1) Next, stimulated cynomolgus T-cells from each donor, as described above, were stained with LIVE/DEAD dye (Molecular Probes) to distinguish between live and dead cells via FACS. Subsequently, cells were co-incubated with PE-conjugated anti-CD8 and FITC-conjugated anti-CD4 for 15 min on ice to enable the detection of CD4 and CD8 positive and negative cell populations.
(§2) Next, the serially diluted antibodies were directly labeled using Zenon Alexa-Fluor 647 (Molecular Probes) and incubated with the cynomolgus CD4+/CD8+ T-cell suspension for 15-30 min on ice. Cells were centrifuged and pellets washed with staining buffer to remove unbound antibodies and fixed for 12 h with a 1:1 dilution of Cytofix (BD Biosciences) and staining buffer. Following the incubation period, fixation buffer was removed and pellets were resuspended in staining buffer, filtered, and used for fluorescence measurements.
(§3) Fluorescence measurements were acquired on the Fortessa (Becton Dickinson) and data analyzed in FlowJo to determine the mean fluorescence intensities (MFI). EC₅₀ values were calculated from a four-parameter logistic equation over an 11-point response curve using GraphPad Prism.

[2] = biological target: T1, cynomolgus LAG3 on activated CD4+ and …; test: FACS, stimulated cynomolgus CD4+ T cells, donor 2
Description: as §1, §2, §3

[3] = biological target: T1, cynomolgus LAG3 on activated CD4+ and …; test: FACS, stimulated cynomolgus CD8+ T cells, donor 1
Description: as §1, §2, §3

[4] = biological target: T1, cynomolgus LAG3 on activated CD4+ and …; test: FACS, stimulated cynomolgus CD8+ T cells, donor 2
Description: as §1, §2, §3

[5] = biological target: T2, monkey LAG3 (mfLAG3) expressed on HEK293 cells (cynomolgus monkey, UniProt P18627 24-525 (human entry)); test: flow cytometry, HEK293/mfLAG3 cells; FACS on HEK293/mfLAG3 cells
T2 construct: also called HEK293/mfLAG3; HEK293-mfLAG3
T2 chain: T1 chain
Description: (§4) The serially diluted antibodies were added to the cell suspension and incubated for 15-30 minutes on ice. The cells were centrifuged and pellets were washed with staining buffer to remove unbound antibodies. […] The cells were centrifuged and pellets were washed with staining buffer to remove unbound secondary F(ab′)2 and fixed overnight with a 1:1 dilution of Cytofix (BD Biosciences, #554655) and staining buffer. Following day, fixed cells were centrifuged and pellets were washed with staining buffer, resuspended and filtered. Fluorescence measurements were acquired on HyperCyt® cytometer and analyzed in ForeCyt™ (IntelliCyt; Albuquerque, N. Mex.) to determine the mean fluorescence intensities (MFI). The EC₅₀ values were calculated from a four-parameter logistic equation over an 11-point response curve using GraphPad Prism. EC₅₀ was defined as the concentration of antibody at which 50% of maximal binding signal is detected. The MFI ratio for each antibody was calculated by dividing the MFI at 100 nM by MFI at 0 nM of antibody concentration.

[6] = biological target: T2, monkey LAG3 (mfLAG3) expressed on …; test: flow cytometry, HEK293/mfLAG3 cells; FACS on HEK293/mfLAG3 cells; MFI ratio 100 nM/0 nM
Description: as §4

EC50 [1]: 1.2 nM
EC50 [2]: 0.38 nM
EC50 [3]: 0.46 nM
EC50 [4]: 0.41 nM
EC50 [5]: 1.15 nM
B1: H4sH15482P (antibody, human IgG4 S228P, kappa)
heavy: QVQLVESGGGVVQPGRSLRLSCVASGFTFSSYGMHWVRQAPGKGLEWVAIIWYDGSNKYYADSVKGRFTISRDNSKNTQYLQMNSLRAEDTAVYYCASVATSGDFDYYGMDVWGQGTTVTVSSASTKGPSVFPLAPCSRSTSESTAALGCLVKDYFPEPVTVSWNSGALTSGVHTFPAVLQSSGLYSLSSVVTVPSSSLGTKTYTCNVDHKPSNTKVDKRVESKYGPPCPPCPAPPVAGPSVFLFPPKPKDTLMISRTPEVTCVVVDVSQEDPEVQFNWYVDGVEVHNAKTKPREEQFNSTYRVVSVLTVLHQDWLNGKEYKCKVSNKGLPSSIEKTISKAKGQPREPQVYTLPPSQEEMTKNQVSLTCLVKGFYPSDIAVEWESNGQPENNYKTTPPVLDSDGSFFLYSRLTVDKSRWQEGNVFSCSVMHEALHNHYTQKSLSLSLGK
light: EIVLTQSPATLSLSPGERTTLSCRASQRISTYLAWYQQKPGQAPRLLIYDASKRATGIPARFSGSGSGTGFTLTISSLEPEDFAVYYCQQRSNWPLTFGGGTKVEIKRTVAAPSVFIFPPSDEQLKSGTASVVCLLNNFYPREAKVQWKVDNALQSGNSQESVTEQDSKDSTYSLSSTLTLSKADYEKHKVYACEVTHQGLSSPVTKSFNRGEC
notes: H4sH = modified human IgG4 Fc; also called mAb1

EC50 [5]: 2.2 nM
B2: H4H15482P (antibody, human IgG4 S228P, kappa)
heavy: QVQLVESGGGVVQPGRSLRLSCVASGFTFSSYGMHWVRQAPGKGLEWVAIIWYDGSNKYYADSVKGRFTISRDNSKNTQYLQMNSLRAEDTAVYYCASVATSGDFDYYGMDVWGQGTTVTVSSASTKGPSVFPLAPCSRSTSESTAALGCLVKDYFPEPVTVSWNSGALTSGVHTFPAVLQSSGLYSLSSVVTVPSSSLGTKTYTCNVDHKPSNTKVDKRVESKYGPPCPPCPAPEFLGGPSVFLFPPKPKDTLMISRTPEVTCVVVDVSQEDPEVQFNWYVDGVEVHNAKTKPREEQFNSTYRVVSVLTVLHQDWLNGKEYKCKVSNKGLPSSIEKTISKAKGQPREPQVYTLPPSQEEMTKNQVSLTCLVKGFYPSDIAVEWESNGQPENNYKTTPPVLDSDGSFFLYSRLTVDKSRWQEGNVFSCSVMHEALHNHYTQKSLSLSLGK
light: B1 light
notes: H4H = human IgG4 Fc with S108P

EC50 [1]: 0.42 nM
Ratio of MFI (11 nM/0 nM) [1]: 1.3
EC50 [2]: 0.22 nM
Ratio of MFI (11 nM/0 nM) [2]: 1.5
EC50 [3]: 0.085 nM
Ratio of MFI (11 nM/0 nM) [3]: 3.5
EC50 [4]: 0.11 nM
Ratio of MFI (11 nM/0 nM) [4]: 6.3
EC50 [5]: 1.57 nM
Ratio of MFI (100 nM/0 nM) [6]: 16.7
B3: H4sH14813N (antibody, human IgG4 S228P, kappa, V domains shown)
VH: QVQLQQWGAGLLKPSETLSLTCAVYGGSFSGYYWNWIRQPPGKGLEWVGEISHRGSTNYNPSLKSRVTISLDTSKNQFSLKLTSVTAADTAVYYCSRDEELEFRFFDYWGQGTLVTVSS
VL: EIVLTQSPATLSLSPGERATLSCRASQSVSSYLAWYQQKPGQAPRLLVYGASNRATGIPARFSGSGSGTDFTLTISSLEPEDFAFYYCQQRSNWPLTFGGGTKVEIKR
notes: H4sH = modified human IgG4 Fc

EC50 [5]: 1.42 nM
Ratio of MFI (100 nM/0 nM) [6]: 17.1
B4: H4H14813N (antibody, human IgG4, V domains shown)
VH: B3 VH
VL: EIVLTQSPATLSLSPGERATLSCRASQSVSSYLAWYQQKPGQAPRLLVYGASNRATGIPARFSGSGSGTDFTLTISSLEPEDFAFYYCQQRSNWPLTFGGGTKVEIK
notes: H4H = human IgG4 Fc with S108P hinge mutation

EC50 [5]: 0.902 nM
Ratio of MFI (100 nM/0 nM) [6]: 20.7
B5: H4sH15479P (antibody, V domains shown)
VH: QVQLQQWGAGLLNPSETLSLTCAVYGGAFSDYYWNWIRQPPGKGLEWIGEINHRGSTNYNPSLKSRVTISVDTSKNQFSLRMSSVTAADAAVYYCARGEDYDIWNGYYQEKWGQGTLVTVSS
VL: B4 VL with V29I, S31T, V48I, G50D, N53K, A84V, F85V, Q89H
